The text below walks through data of patent publication US20040053349A1, “Direct selection of protein complexes relevant to physiological or diagnostic context of a biological specimen” (priority 2000, published 2004).

The data set concerns trypsin. The data set can be described thus: Trypsin treatment of enzyme-spiked dialyzed human serum with or without ligand solutions, then residual enzyme activity assay. It is filed as biochemical. The settings on record: for Relative residual activity [percent of untreated], LSA: LSA (ATP, XMP, CMP, NADP, NADPH) added before treatment with trypsin; for Relative residual activity [percent of untreated], LSA + LSB: LSA and LSB both added before treatment with trypsin; for Relative residual activity [percent of untreated], LSB: LSB (glucose, L-aspartic acid, D,L-asparagine, creatine, D,L-glyceraldehyde-3-P) added before treatment with trypsin. Here is the method: 2. Ligand solutions (LS) are composed as follows:
One) ATP, XMP, CMP, NADP and NADPH are included in ligand solution LSA; and
Two) Glucose, L-aspartic acid, D,L-asparagine, creatine, D,L-glyceraidehyde-3-P are included in ligand solution LSB.
2. The serum is treated with trypsin in the absence and presence of LSA or LSB, or both. At the end of the treatment samples are assayed for enzyme activity. For details see Table 1.

For the molecule Asparaginase, the “Relative residual activity [percent of untreated], LSA” value is recorded as 9% of untreated; the “Relative residual activity [percent of untreated], LSA + LSB” value is given as 90% of untreated; the “Relative residual activity [percent of untreated], LSB” value was 89% of untreated.

B1: Ribonuclease A: enzyme preparation spiked into dialyzed serum sample (protein, UniProt P61823 27-150, looked up)
Ribonuclease pancreatic: KETAAAKFERQHMDSSTSAASSSNYCNQMMKSRNLTKDRCKPVNTFVHESLADVQAVCSQKNVACKNGQTNCYQSYSTMSITDCRETGSSKYPNCAYKTTQANKHIIVACEGNPYVPVHFDASV
For B1, the “Relative residual activity [percent of untreated], LSA” value is 93% of untreated; the “Relative residual activity [percent of untreated], LSA + LSB” value is given as 93% of untreated; the “Relative residual activity [percent of untreated], LSB” value is recorded as 11% of untreated.
